Laboratory results published in article PMC2837123.

Biological target: PFV integrase (IN) (prototype foamy virus, UniProt P14350 752-1143)
Assay: crystal structure

B1: pre-processed PFV U5 end (17/19 nt) (dsDNA)
DNA 1: TACAAAATTCCATGACA
DNA 2: ATTGTCATGGAATTTTGTA
- binding result: binds
